Measurements as given in patent US20030229003, “Use of transcription factors for treating inflammation and other diseases” (published 2003).

What was measured:
ESE-1 (ELF3) [1] = target: T1, ESE-1 (ELF3) (Homo sapiens, UniProt P78545 P78545:1-371); assay: cell_activity
T1 sequence: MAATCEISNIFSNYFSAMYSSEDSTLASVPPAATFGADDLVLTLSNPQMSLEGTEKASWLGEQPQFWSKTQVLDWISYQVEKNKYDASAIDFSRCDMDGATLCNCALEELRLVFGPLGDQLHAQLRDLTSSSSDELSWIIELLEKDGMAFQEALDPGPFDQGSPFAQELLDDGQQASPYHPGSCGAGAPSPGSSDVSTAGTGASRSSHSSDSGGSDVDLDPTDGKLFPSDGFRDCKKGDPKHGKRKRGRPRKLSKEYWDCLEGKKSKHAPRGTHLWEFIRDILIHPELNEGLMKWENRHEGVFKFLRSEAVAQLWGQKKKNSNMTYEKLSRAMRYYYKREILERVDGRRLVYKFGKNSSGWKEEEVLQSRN

ESE-1 (ELF3) [2] = target: T1, ESE-1 (ELF3); assay: EMSA; conditions: tags: pCI/ESE-1, TNT rabbit reticulocyte lysate; label: 32P
Protocol: Having identified putative targets for ESE- 1 we were also interested to determine whether ESE- 1 could specifically bind to Ets sites within the NOS2 promoter. An Ets binding site was identified which is highly homologous to the Ets consensus binding site for ESE- 1 (Oettgen, P., et al., 1999, J Biol Chem 274:29439-52). […] As is shown in FIG. 6, ESE- 1 binds equally well to both Ets sites.
In vitro transcription-translation was performed in TNT rabbit reticulocyte lysate (Promega) using the pCI/ESE- 1 vector as described (Oettgen, P., et al. et al. 1997, Mol Cell Biol 17:4419-33). EMSAs and supershift assays were performed using 2 μl of in vitro translation product or 3 μl of whole cell extract and (³²P)-labeled double stranded oligonucleotide probes in the presence or absence of competitor oligonucleotides (1, 10 or 100 ng) or antibodies as described (Akbarali, Y., et al. 1996. J Biol Chem 271:26007-12). Whole cell extracts were made from U- 138 Mg cells after incubation with IL-1β for 0, 3, and 8 hours using as lysis buffer 1% Triton X- 100, 25 mM glycylglycine pH7.8, 15 mM MgSO₄, 4 mM EGTA, 1 mM dithiothreitol, phenylmethylsulfonyl fluoride, Aprotinin, and Pepstatin. All antibodies for super-shift assays (2 μl per assay) were obtained from Santa-Cruz Technologies (CA) (Oettgen, P., et al. 1996, Mol Cell Biol 16:5091-106).

ESE-1 (ELF3) [3] = target: T1, ESE-1 (ELF3); assay: EMSA; strong specific complex; data not shown; conditions: tags: pCI/ESE-1, TNT rabbit reticulocyte lysate; label: 32P

COX-2 promoter -170/+103 was tested. Which activity (ESE-1 (ELF3) [1]; luciferase, RAW 264.7) did it give?
Its activity is > 10 fold.

Which activity (ESE-1 (ELF3) [1]; luciferase transactivation, RAW cells, promoter length in Example 1M not stated) does the source give for NOS2 promoter -234/+31 here?
Its activity is 12 fold.

B1: murine PSP promoter Ets site (dsDNA)
DNA 1: TCGACGAACATCCAGGAAATAGGGCTC
DNA 2: TCGAGAGCCCTATTTCCTGGATGTTCG
Does B1 bind (ESE-1 (ELF3) [2])?
Result: binds

B2: COX-2 promoter Ets site 1 (dsDNA)
DNA 1: GCACGTCCAGGAACTCCTCAGC
DNA 2: GCTGAGGAGTTCCTGGACGTGC
Does B2 bind (ESE-1 (ELF3) [3])?
Result: binds

B3: COX-2 promoter Ets site 3 (dsDNA)
DNA 1: CGAAAAGGCGGAAAGAAACAGT
DNA 2: ACTGTTTCTTTCCGCCTTTTCG
Does B3 bind (ESE-1 (ELF3) [3])?
Result: binds
